± gives the half width of the 95% confidence interval.
Assays:
[1] = folding stability dG unfold from chymotrypsin proteolysis; higher = more stable
Procedure, shortened: (§1)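 Unfolding free energy was derived, per protease or combined, against a sequence-predicted unfolded-state K50 and a shared folded-state K50, starting from K50 inferred by Bayesian fitting of sequencing counts. Digestion with trypsin and chymotrypsin was carried out on designed mini-proteins under 80 residues without cysteine in a PA-tagged cDNA display construct. Only designs with AlphaFold2 dimer inter-PAE above 15 were kept.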

[2] = folding stability dG unfold from trypsin proteolysis; higher = more stable
Procedure, shortened: as §1

[3] = folding stability dG unfold (combined trypsin and chymotrypsin); higher = more stable
Procedure, shortened: as §1

Sequence | folding stability dG unfold [1] [kcal/mol] | folding stability dG unfold [2] [kcal/mol] | folding stability dG unfold [3] [kcal/mol]
SAGGMTTLTLETTDEGKPLGLEEILARLREALPGVPVEVLSADPAKGVVTIAVAPEAVPEIERAVAASAGGS [r8_235_JUSTAS] | 2.1 ± 0.022 | 1.69 ± 0.038 | 1.96 ± 0.074
SAGGMKTLRLVVTVKVPKETGKPTVAEKLAEELAKLPGVEVVKVEVKRLENGTVVVTIEIKVPKELKPSAGG [r13_428_TrROS_Hall] | 3.36 ± 0.061 | 3.13 ± 0.23 | 3.18 ± 0.13
SAGGDLKIEIEPYRMGDYPMYEVKIEDPDGKDITLWMNSNNGQMMVFYPNGKPRRVDSAEDVLEALKSAGGS [r8_168_TrROS] | 0.185 ± 0.16 | -0.243 ± 0.16 | 0.149 ± 0.1
SAEPKRYYALVVKRPDGKWLVFYFEDVEEGRERFEEFLRKEFPEDFEVELFEVEPSEAESIEKLLEALGSAG [r14_900_TrMRF] | 4.8 ± 0.091 | 3.07 ± 0.14 | 4.61 ± 0.17
SAGGSKIKIVEVKKNEDGTVTVKVEVEINGKKYTIEARFETLEDGKKVMTLRITNENGEEIEIVLPSAGGSA [r2_376_TrROS_Hall] | 5.22 ± 0.17 | 3.45 ± 0.38 | 5.12 ± 0.32
SAGGSNPNMFRLKVEIEPYEYRDPDGQPKARVWKIDIEMEPGMPPNMAKNIASNFQNRGLPVKIEPSAGGSA [r2_456_TrROS] | 0.689 ± 0.12 | 0.102 ± 0.18 | 0.578 ± 0.16
SATREIELPGKKITIHHNPGNNMFRITIYDPKPGKPVEIPIPANNPGMTMENIIDQIREAAKKGRPVRISAG [r14_157_TrROS] | 0.671 ± 0.079 | 0.85 ± 0.036 | 0.885 ± 0.082
SAGGSAEELAKELAEKEGVKEVKVTVIKNKNGKLVLKVENKETNKTYEIELPEGAEVVEEITLKVKSAGGSA [r2_74_TrROS_Hall] | 1.23 ± 0.061 | 0.106 ± 0.086 | 0.923 ± 0.1
SFSISTETKVVPQDGRLLIEYEFTVPNAPPGDTAALTLSVSHPSGASTSTSQTADPAGTYTAKFVVDIPLTS [r1_161_JUSTAS] | 0.471 ± 0.09 | 0.437 ± 0.061 | 0.527 ± 0.053
SAGGSAGGSTVTIEIPGFKTPEEIAKAIAEKTGKKVKEVKVEKDKKNKTYTITVTVDGKEITFSAGGSAGGS [r12_935_TrROS_Hall] | 1.03 ± 0.087 | 0.333 ± 0.082 | 0.805 ± 0.15
SAGMVIRDPGDGKYIYISPGSGEIEIFNDGKEKKIPFPPGEEMEIEIDPDDGTITITFPNNGRELEIPLSAG [r5_858_TrROS] | 0.846 ± 0.11 | 0.598 ± 0.049 | 0.699 ± 0.16
SAGSSETYSFKSPEEAKKKLKEEYGVSVEELPGNRVRINLVLDNKPVVVLIDTSTNLATVVSPEVVERKSAG [r14_402_JUSTAS] | -0.291 ± 0.8 | -0.219 ± 0.21 | -0.257 ± 0.23
SAGGMTLTIEIVVPPGTTVEELKKALEELGYEITSIEVEYDPETDLVTVRMEIRLPPPPPVSEEEKKSAGGS [r16_584_TrROS_Hall] | 3.23 ± 0.16 | 1.87 ± 0.076 | 2.73 ± 0.17
SAALAELLLNEGYEVRIEVEVREVRPRTLPGGGTTVELDITVRIELRPPPIPPPPLDPRLLRDEDGHLRSAG [r14_569_TrMRF] | 1.95 ± 0.071 | 2.35 ± 0.037 | 2.15 ± 0.1
SAGGWIWIPPDDPEDAKEWARELVLMFANHMKEQGQEDMTVDVDIHVWDPKDGNWYRIPVEFRVKPDSAGGS [r8_163_TrROS] | 2.31 ± 0.12 | 1.97 ± 0.044 | 2.19 ± 0.13
SAGGSAGGSSVPEGWEVEREKVLEAEIVGEDGPVLRVRLYRVRVRPVDGPPRYFFELDVDDVDSAGGSAGGS [r12_544_TrMRF] | 2.915 ± 0.027 | 2.38 ± 0.095 | 2.74 ± 0.11
SMVIEPKPDGTVTVTLPSSLPDLPREEVEAIVREALPPGASLGDSITVSRDPETGEVTVTAPVKFPPELASA [r9_1011_JUSTAS] | 0.544 ± 0.025 | 1.55 ± 0.076 | 1.03 ± 0.084
SAGGDPNTARVVVLTGHPDVITPEQIRTLLENLGADEIKSVEVFTTPTSRVVRFVDSNGAPTVIFVPSAGGS [r8_86_TrMRF] | 1.99 ± 0.032 | 1.8 ± 0.038 | 1.88 ± 0.072
SDYYIINIKIEVYYDGKPVREIPIFILVPPEQALMIAETIAEMLPGYKVKIKINVYRIPEDDPELREAFGSA [r9_782_TrROS] | 3.26 ± 0.044 | 2.31 ± 0.077 | 2.93 ± 0.18
SAEDEYEVELTFEAPLNEPEVIEKIKKELEELGFEIEEVKVEVLEDPKTVKVTLKARVKGIPPEKLKALSAG [r14_956_TrMRF] | 1.92 ± 0.099 | 1.78 ± 0.033 | 1.82 ± 0.086
SAGGEELIKELLDKLPPDVKEATIEIEVDGKKVTLTVNEDGEVTLEVIDPETKEKKTFKIKNGKIEPVSAGG [r13_803_TrROS_Hall] | 3.19 ± 0.079 | 2.46 ± 0.28 | 2.97 ± 0.28

Sequence | folding stability dG unfold [1] [kcal/mol] | folding stability dG unfold [2] [kcal/mol] | folding stability dG unfold [3] [kcal/mol]
SAGPKIEIHYTPNGIHLTIELPGEWIWMMIPVPPGEKVKIRLPGNGLEITARPYDDYVMIRIRIPDAPSAGG [r19_384_TrROS] | 5.3 ± 0.16 | 3.59 ± 0.083 | 4.74 ± 0.27
SAGGSAGGSAKYLVVGGKVIEIPSGGDAKIETTKDDRVKVTIDLPDDRKLEFTFPVPKWVGSAGGSAGGSAG [r3_207_TrMRF] | 0.215 ± 0.099 | 0.514 ± 0.029 | 0.408 ± 0.07
SAGGNNIMIWIRKNPKEGKRKIMIYTDSPSWVEMIAEEAKDPGFKIVGPMTVEEAAQKMGFPPDLFISAGGS [r16_438_TrROS] | 1.29 ± 0.15 | 1.09 ± 0.14 | 1.27 ± 0.2
SAGGSAGGSAGGIGPEIVEAALIEAKEKVPEDEEVEILVRDPVTGEVLRLRIYPDRVELGSAGGSAGGSAGG [r7_44_TrMRF] | 0.785 ± 0.14 | 0.384 ± 0.11 | 0.698 ± 0.19
SAGGSAGGSASMKVLEFPPDASIEEILEKIEKELGLSKEEIKNIKIEKIDDEEGSYKVIIESAGGSAGGSAG [r3_26_JUSTAS] | 2.62 ± 0.054 | 2.42 ± 0.062 | 2.59 ± 0.07
SAGGSAGGSAGGMVTTKTVVTFDPSGYITTTETIKVVGTDELLTKTSVTPVEPVPPLLSSAGGSAGGSAGGS [r10_928_JUSTAS] | 1.18 ± 0.026 | -0.179 ± 0.2 | 0.828 ± 0.1
MTPEERIEEIEAKARELLRELGLPPEVRLTVEAEVRPRPDGRLELRVRVTVEFPGPPGAIPPELLEALAEES [r1_98_TrMRF] | 2.38 ± 0.086 | 2.7 ± 0.081 | 2.53 ± 0.14
SAPIRPGQDLKIEPEIRRYPNGSMSYTYRLEFPNGPTVHVRHTMQRDPEHGKPRHKWDIHLSPKALEAFSAG [r14_842_TrROS] | 1.37 ± 0.09 | 1.49 ± 0.057 | 1.41 ± 0.07
SAGGGMEIRLTIYRVDPETGVETSVEKEVTLEEAKEIVKEIPEEGEYTVRVTRPDRPEDVSPEELKLLSAGG [r13_254_JUSTAS] | -0.0215 ± 0.16 | 0.246 ± 0.11 | 0.192 ± 0.073
SAGGSAGGSAGGIKDVKITEFERHPENNWYEVKISIPNGKPVEIPMNPGQSAEDILDQISAGGSAGGSAGGS [r10_984_TrROS] | 0.651 ± 0.045 | -0.418 ± 0.19 | 0.421 ± 0.2
SMTPEEARALAEAIAAERAAAGYATEMELTVTPVNGVPVATFRFRFTDAAGRATEFTVTVAPDGTVTFTPSA [r9_1027_JUSTAS] | 3.814 ± 0.031 | 3.34 ± 0.089 | 3.64 ± 0.08
SMSVEISVPPTNPGASPEEIAAALAAKGRPVEVVSVSEDPSTGTRTVTIAVRAPDGTLEETVVVNAPVGVSA [r9_879_JUSTAS] | -0.772 ± 0.33 | 0.495 ± 0.057 | 0.0853 ± 0.12
SAGGSAGGSAGGAPEVKRVLVLVEVEVKPGDTIELPEGARVIWDPKTRRLYVLVEVELRPSAGGSAGGSAGG [r7_584_TrROS_Hall] | 3.77 ± 0.057 | 2.73 ± 0.12 | 3.38 ± 0.13
SAGGSAGGSAGSKTIEVVIPVKPNELTPEQAENLIKPFFPDAKIEVTPEGNYLVVKVEVSSAGGSAGGSAGG [r11_7_TrMRF] | 0.334 ± 0.067 | 0.475 ± 0.11 | 0.366 ± 0.18
SAGGPDNIRIDLKIEPTGDSVKITFPIYNPNGSPIKVEMEYQRVGGKKFFRMKIEFGGRPIELWIPISAGGS [r16_476_TrROS] | 4.93 ± 0.094 | 3.4 ± 0.13 | 4.7 ± 0.22
SAMKLPKDVEIKEIKFDPEKTVTIKIKVKKYDFFIYDPETGKVIVIKPGEEKEITLPANIPLLIFAIKPSAG [r14_385_TrMRF] | 1.91 ± 0.098 | 2.16 ± 0.092 | 2.16 ± 0.23
SAGGSAGGSAGIVIPLDGRPIVIDMYPNGYMRIEVEPPNGKKKTRTFPGAPIEDILKAIKSAGGSAGGSAGG [r11_934_TrROS] | -0.0199 ± 0.12 | -0.695 ± 0.71 | -0.204 ± 0.28
SAGGSAGGSAGGGTAEELAKELEDLGYKVKLEPEGDYLLLTVTDPDNDKPYVILLDPETISAGGSAGGSAGG [r7_0_TrMRF] | 0.776 ± 0.028 | 1.25 ± 0.067 | 0.991 ± 0.035
SAGGSAGGSPGMKPVEIPFRNPDGKNWKITSIYVMPDGPAMITIEDPNNGKERQIPAEDIDEFSAGGSAGGS [r12_488_TrROS] | 0.227 ± 0.32 | -0.911 ± 0.58 | -0.136 ± 0.21
SAGGSAKITPGEEINFMFYNPENGQPFMVRIRIEKITVKRKPKDGKRKVEYKIKIEMSPGMKEITISAGGSA [r15_248_TrROS] | 3.32 ± 0.11 | 2.26 ± 0.15 | 3.23 ± 0.3
SAGGSAGGSAGGKPKLIVRVKIKNENGEEIEIEIEVETLDEAKEAAKKLGFEIVEVEVLSAGGSAGGSAGGS [r10_882_TrROS_Hall] | 2.54 ± 0.081 | 3.94 ± 0.23 | 3.28 ± 0.19
